Reference: patent US20240002497A1 (Merck Sharp & Dohme, published 2024)
Numbering of substitutions follows the chain as printed. In names and notes the source's numbering stands. Values belong to the binder of their own block, whether it stands above or below them.

Key:
huNav1.7α+β1 = target: T1, huNav1.7α+β1 (human, UniProt Q15858 1-1988; Q07699 19-218); experiment: binding FACS, HEKa/β1 cells
T1 construct: also called huNav1.7-beta1; HEKa/β1
Method: Binding of the ISVDs to cell-expressed Nav1.7α was detected via murine anti-Flag (Sigma, catalog #F1804). Briefly, cells were resuspended in FACS buffer (PBS, 10% FBS, NaN₃) and transferred to a 96-well V-bottom plate at 1×10^5 cells/well. Purified FLAG3-tagged ISVD was diluted in FACS buffer and added to the cells for 30 minutes at 4° C. […] Prior to the read-out, the samples were resuspended in 1 μg/mL propidium iodide (Sigma, catalog #P4170) to exclude dead cells. Between each step, the cells were centrifuged for 5 minutes at 200 grams and washed with 100 μL/well FACS buffer.

[1] = target: T2, huNav1.7α + β1-β2-β3 (human Nav1.7α co-expressed with human Navβ1, Navβ2 and Navβ3 on cells) (human); experiment: binding FACS, CHO FlpIn cells
T2 construct: also called huNav1.7-beta1-beta2-beta3; CHO FlpIn huNav1.7α + β1-β2-β3
How it was run: (§1)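 FLAG3-tagged ISVD, 30 min, 4° C, FACS buffer (PBS/10% FBS/NaN₃); 1×10^5 cells/well; detection murine anti-Flag; PI 1 μg/mL live gate; washes between steps.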

[2] = target: T3, rhNav1.7α + β1-β2-β3 (rhesus Nav1.7α co-expressed with Navβ1, Navβ2 and Navβ3 on cells) (rhesus monkey (α subunit); β subunits …); experiment: binding FACS, CHO FlpIn cells
T3 construct: also called rhNav1.7-beta1-beta2-beta3; CHO FlpIn rhNav1.7α + β1-β2-β3
How it was run: as §1

Bmax relative to '535 (huNav1.7α+β1): 117% | EC50 (huNav1.7α+β1): 4.4 nM
B1: F010301055 (VHH)
VHH: EVQLVESGGGLVQPGGSLRLSCAASGMLFNANTQGWYRQAPGKQRELVAFIFWGGYVNYVDSVKGRFTISRDNAKRTMYLQMNSLKPEDSAIYYCSLSRYLGQGTLVTVSS
notes: vs F0103265A11: S53W, T57V

Bmax relative to '535 (huNav1.7α+β1): 117% | EC50 (huNav1.7α+β1): 4.7 nM
B2: F010301139 (VHH)
VHH: B1 VHH with A31R, I51W, W53S, V60N, L101Q
notes: vs F0103265A11: A31R, I51W, T57V, V60N, L103Q

Bmax relative to '535 (huNav1.7α+β1): 107% | EC50 (huNav1.7α+β1): 9.7 nM
B3: F010301138 (VHH)
VHH: B1 VHH with N30Y, W53S, V57T, V60N, S96A, L101Q
notes: vs F0103265A11: N30Y, V60N, S93A, L103Q

Bmax relative to '535 (huNav1.7α+β1): 111% | EC50 (huNav1.7α+β1): 5.4 nM
B4: F010301175 (VHH)
VHH: B1 VHH with A31R, W53S, V57T, N58T
notes: vs F0103265A11: A31R, N58T

Bmax relative to '535 (huNav1.7α+β1): 99% | EC50 (huNav1.7α+β1): 5.4 nM
B6: F010301059 (VHH)
VHH: B1 VHH with W53S, V60N, S96A, L101Q
notes: vs F0103265A11: T57V, V60N, S93A, L103Q

Bmax relative to '535 (huNav1.7α+β1): 118% | EC50 (huNav1.7α+β1): 5.6 nM
B9: F010301126 (VHH)
VHH: B1 VHH with A31R, W53S, N58T, V60N
notes: vs F0103265A11: A31R, T57V, N58T, V60N

Bmax relative to '535 (huNav1.7α+β1): 111% | EC50 (huNav1.7α+β1): 5.7 nM
B10: F010301113 (VHH)
VHH: B1 VHH with A31R, W53S, V57T, V60N, R99V, L101Q
notes: vs F0103265A11: A31R, V60N, R101V, L103Q

Bmax [1]: 100% | EC50 [1]: 9.4 nM | Bmax [2]: 100% | EC50 [2]: 10 nM
B12: F010302371 (VHH)
VHH: EVQLVESGGGVVQPGGSLRLSCAASGPVFNINRMAWYRQAPGKQRELVAYVTPTGDISYADSVKGRFTISRDRSKRVYLQMNSLRPEDTALYYCRALLQPNVYSITRTYWGQGTLVTVSS
notes: also called F0103387G04(L11V, A12V, K33R, R39Q, S50Y, S56D, T60A, G73R, W78V, S79Y, T83R, V89L, N93R, D99N, S100V, N100cI)

Bmax [1]: 100% | EC50 [1]: 7.9 nM | Bmax [2]: 100% | EC50 [2]: 5 nM
B17: F010302385 (VHH)
VHH: B12 VHH with D72Q, R73G, N101S, V102S, I105G
notes: also called F0103387G04(L11V, A12V, K33R, R39Q, S50Y, S56D, T60A, D72Q, W78V, S79Y, T83R, V89L, N93R, D99S, N100cG)

Further lines, the binder ahead of its results:

B5: F010301099 (VHH)
VHH: B1 VHH with W53S, Y56W, N58T
notes: vs F0103265A11: Y56W, T57V, N58T
Bmax relative to '535 (huNav1.7α+β1): 87% | EC50 (huNav1.7α+β1): 7.4 nM

B7: F010301188 (VHH)
VHH: B1 VHH with A31R, W53S, V57T, V60N, L101Q
notes: vs F0103265A11: A31R, V60N, L103Q
Bmax relative to '535 (huNav1.7α+β1): 104% | EC50 (huNav1.7α+β1): 5.1 nM

B8: F010301111 (VHH)
VHH: B1 VHH with W53S, V60N, S96A
notes: vs F0103265A11: T57V, V60N, S93A
Bmax relative to '535 (huNav1.7α+β1): 99% | EC50 (huNav1.7α+β1): 5.4 nM

B11: F010301840 (VHH)
VHH: EVQLVESGGGVVQPGGSLRLSCAASGPVFNINRMAWYRQAPGKQRELVAYVTPTGDISYTDSVKGRFTISRDGSKRTWSLQMNSLRPEDTALYYCRALLQPDSYSNTRTYWGQGTLVTVSS
notes: also called F0103387G04(R76_V78insT)(L11V, A12V, K33R, R39Q, S50Y, S56D, T83R, V89L, N93R)
Bmax [1]: 100% | EC50 [1]: 47 nM | Bmax [2]: 50% | EC50 [2]: 48 nM

B13: F010301865 (VHH)
VHH: B12 VHH with R73G, N101D, V102S, I105N, S120A
notes: also called F0103387G04(L11V, A12V, K33R, R39Q, S50Y, S56D, T60A, W78V, S79Y, T83R, V89L, N93R)
Bmax [1]: 100% | EC50 [1]: 20 nM | Bmax [2]: 100% | EC50 [2]: 11 nM

B14: F010302384 (VHH)
VHH: B12 VHH with D72G, R73G, N101S, V102S
notes: also called F0103387G04(L11V, A12V, K33R, R39Q, S50Y, S56D, T60A, D72G, W78V, S79Y, T83R, V89L, N93R, D99S, N100cI)
Bmax [1]: 100% | EC50 [1]: 6.2 nM | Bmax [2]: 100% | EC50 [2]: 4.3 nM

B15: F010302372 (VHH)
VHH: B12 VHH with N101D
notes: also called F0103387G04(L11V, A12V, K33R, R39Q, S50Y, S56D, T60A, G73R, W78V, S79Y, T83R, V89L, N93R, S100V, N100cI)
Bmax [1]: 100% | EC50 [1]: 17 nM | Bmax [2]: 100% | EC50 [2]: 20 nM

B16: F010302386 (VHH)
VHH: B12 VHH with D72Q, R73G, N101S, V102S
notes: also called F0103387G04(L11V, A12V, K33R, R39Q, S50Y, S56D, T60A, D72Q, W78V, S79Y, T83R, V89L, N93R, D99S, N100cI)
Bmax [1]: 100% | EC50 [1]: 7.3 nM | Bmax [2]: 100% | EC50 [2]: 4.9 nM
